Legend:
[1] = target: human c-NADP-ME H51A/D139A (human) (UniProt P48163); experiment: AUC; sedimentation velocity, 0.3 mg/ml protein, 30 mM Tris-acetate pH 7.4, without urea, 20°C, 42,000 rpm, SEDFIT continuous size distribution
[2] = target: human c-NADP-ME H51A/D90A (human) (UniProt P48163); experiment: as above
[3] = target: human c-NADP-ME H142A/D568A (human) (UniProt P48163); experiment: as above
[4] = target: human c-NADP-ME W572A (human) (UniProt P48163); experiment: as above
[5] = target: human c-NADP-ME H142A (human) (UniProt P48163); experiment: as above
[6] = target: T1, human cytosolic NADP+-dependent malic enzyme, wild type (human), P48163; experiment: AUC; sedimentation velocity, 0.3 mg/ml protein, preincubated with 2 M urea in 30 mM Tris-acetate pH 7.4 at 25°C for 16 h, run at 20°C; conditions: remark: other sources report otherwise
T1 chain: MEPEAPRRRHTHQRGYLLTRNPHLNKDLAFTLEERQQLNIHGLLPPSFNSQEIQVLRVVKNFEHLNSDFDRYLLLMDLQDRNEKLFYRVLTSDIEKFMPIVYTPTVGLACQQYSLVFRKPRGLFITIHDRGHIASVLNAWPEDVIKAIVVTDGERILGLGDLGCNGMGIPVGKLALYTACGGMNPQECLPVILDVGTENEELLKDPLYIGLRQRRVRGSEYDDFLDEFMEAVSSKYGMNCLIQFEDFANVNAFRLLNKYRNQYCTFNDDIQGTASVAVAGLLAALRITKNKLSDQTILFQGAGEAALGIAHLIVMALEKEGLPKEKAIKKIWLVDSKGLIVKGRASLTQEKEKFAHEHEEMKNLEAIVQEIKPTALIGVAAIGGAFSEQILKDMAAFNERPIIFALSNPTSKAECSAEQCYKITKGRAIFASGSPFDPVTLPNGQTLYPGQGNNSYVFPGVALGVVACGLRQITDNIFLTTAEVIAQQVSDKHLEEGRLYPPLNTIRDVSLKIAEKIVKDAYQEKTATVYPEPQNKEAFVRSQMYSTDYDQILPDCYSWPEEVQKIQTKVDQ

## human c-NADP-ME H51A/D139A (from UniProt P48163 13-564) (enzyme)
[1]
  stoichiometry N: 2

## human c-NADP-ME H51A/D90A (from UniProt P48163 13-564) (enzyme)
[2]
  stoichiometry N: 2

## human c-NADP-ME H142A/D568A (from UniProt P48163 13-564) (enzyme)
[3]
  stoichiometry N: 2

## human c-NADP-ME W572A (from UniProt P48163 13-564) (enzyme)
[4]
  stoichiometry N: 2

## human c-NADP-ME H142A (from UniProt P48163 13-564) (enzyme)
[5]
  stoichiometry N: 2

B1: human cytosolic NADP+-dependent malic enzyme, wild type, P48163 1-572 (enzyme)
chain: T1 chain
[6]
  stoichiometry N: 2
